Assay results from patent US8765126B2, “Methods of treating complications and disorders associated with G-CSF administration” (priority 2011, dated 2014).
Entries after “also recorded” stand apart in the source; their conditions may differ. Like-named read-outs stand apart in the source and are kept apart here.

Key:
[1] = tested on: mice with surgically-induced myocardial infarct; assay: Surgically induced myocardial infarct, echocardiographic ejection fraction; assay type: in vivo; settings: 7 days post-MI, mice injected with neuraminidase-treated ML vs untreated ML
From the text: Adult RAG-2/JAK-3 SCID mice were maintained on a standard mouse chow diet and water ad libitum, and housed in a temperature-controlled environment under an alternating 12-hour light/dark cycle. All animal handling procedures adhered strictly to the approved guidelines of the Institutional Animal Care and Use Committee. Mice paired by weight and sex were distributed in two groups: in one group experimental MI was induced by permanent left anterior descending artery (LAD) ligation, as previously described^67 and another group that underwent open thoracotomy without coronary ligation (sham operated). Within five hours following the surgery, mice from each group were injected via jugular vein either with PBS or different cell types: NL, ML or sialidase-treated ML (4×10^6 cells/mouse). The surgeon who performed the MI procedure and the jugular vein perfusions was blinded to the type of cells/[…] injected in each animal. Echocardiography was performed on all mice before surgery (baseline), at 3 days and 7 days following surgery using an 18 to 38 MHz linear-array transducer with a digital ultrasound system (Vevo 2100 Imaging System, VisualSonics, Toronto, Canada). Standard parasternal long- and short-axis views were obtained during each echocardiographic examination and image measurements were performed offline by an investigator blinded to animal groups and the cell types/PBS injections.

membrane MPO = assay: Flow cytometry of cell surface (membrane) MPO expression on myeloid cells; assay type: cell-based, human
Protocol: (§1) Flow cytometry. Cell surface expression of E-selectin ligands and MPO was determined by indirect single-color immunostaining with HECA-452 and anti-MPO (2C7) mAbs, respectively. Cells were incubated with primary antibodies and their matched isotype controls in PBS with 2% FBS for 20 min, on ice. After successive washes with PBS and 2% FBS cells were stained with FITC-conjugated secondary antibody for HECA-452 and PE-conjugated secondary antibody for MPO. Stained cells were then washed, resuspended in PBS, and analyzed using the Cytomics FC 500 MPL flow cytometer (Beckman Coulter, Miami, Fla.).
(§2) In vitro G-CSF treatment. Myeloid cells (10^6 cells/ml), isolated from different sources were cultured with RPMI 1640 medium (Mediatech, Inc, Manassas, Va.) with 10% FBS, 1% pen/strep and 10 ng/ml recombinant human G-CSF (Neupogen) from Amgen Mfg. Ltd., CA. Cells were maintained in culture for 72 h, at 37° C. and G-CSF aliquots were added after each 24 h period.
(§3) Neuraminidase and DMJ treatment. Cells were isolated from the buffy coat of bone marrow aspirates after centrifugal sedimentation and red blood cell lysis. […] After extensive washes, cells were divided in equal numbers and cultured in RPMI 1640 medium, for 48 h, with or without G-CSF treatment. In parallel, a subset of cells cultured with G-CSF was treated with 1 mM deoxymannojirimycin (DMJ). The effect(s) of G-CSF and DMJ were assessed by flow cytometry analysis of surface expression of HECA-452 determinants and of MPO.

surface MPO = assay: Detection of membrane MPO activity (surface biotinylation, streptavidin beads, OPD substrate); assay type: cell-based, human
Protocol: Detection of membrane MPO activity. Aliquots of NL and ML were surface biotinylated, lyesed and membrane proteins were precipitated with streptavidin-conjugated agarose beads. The beads were incubated with a chromogenic peroxidase substrate, o-Phenylenediamine dihydrochloride (OPD) (Sigma) and the activity of surface MPO was monitored spectrophotometrically.

[2] = tested on: HECA-452-reactive glycans; assay: Flow cytometry of cell surface HECA-452-reactive sialofucosylated glycans on myeloid cells; assay type: cell-based, human
Protocol: as §1, §2, §3

MPO-EL = assay: MPO immunoprecipitation and western blot with E-selectin-Ig chimera / anti-MPO 3D3; assay type: cell-based, human
Protocol: G-CSF induces MPO-EL expression in myeloid cells in vitro. To directly assess whether G-CSF stimulates expression of MPO-EL, freshly obtained BM, NL and ML were placed in culture and treated for 48 hours with human G-CSF at 10 ng/ml, a dose reflecting physiologic concentrations of G-CSF following in vivo administration^21,37. MPO was immunoprecipitated from equivalent cell numbers of BM, NL and ML, then resolved on SDS-PAGE and blotted with an anti-MPO Ab which predominantly recognizes the heavy chain (clone 3D3) (FIG. 4d); blots were then stripped and stained with E-Ig (FIG. 4e).
Immunoprecipitations, SDS-PAGE and Western Blotting. Leukocytes were lysed in Buffer A (0.5 mM Tris, pH=8, 150 mM NaCl, 20 μg/ml PMSF, 0.02% sodium azide) supplemented with 1% Triton (Sigma-Aldrich, St. Louis, Mo.) and protease inhibitor cocktail (Roche Diagnostics GmbH, Mannheim, Germany). Cell lysates were precleared with rProtein G Agarose beads (Invitrogen, Carlsbad, Calif.). Immunoprecipitations were performed at 4° C. for 16 h, by incubating the precleared lysates with 2 μg antibody and a fresh batch of agarose beads blocked in advance with 1 mg/ml bovine serum albumin (Sigma-Aldrich, St. Louis, Mo.). After extensive washes, the beads were boiled with sample buffer and the released antigens or cell lysates were resolved on 7.5% Tris-HCl SDS-PAGE (Criterion™ Precast Gel, Bio-Rad Laboratories, Hercules, Calif.). In western blot experiments separated proteins were transferred to Sequi-Blot™PVDF Membrane (Bio-Rad Laboratories, Hercules, Calif.) which was blocked for 2 h with a solution of 5% Non-Fat Milk (LabScientific, Livingston, N.J.). Proteins were detected with E-selectin-Ig chimera or with anti-MPO mAb: clone 2C7 (Abcam) and clone 3D3 (a generous gift from Carrie Rice at Maine Biotechnology Services, ME). Secondary antibodies goat anti-human IgG and goat anti-mouse IgG, HRP-conjugated were detected with Lumi-Light Western Blotting Substrate, (Roche Diagnostics GmbH, Mannheim, Germany).
In vitro G-CSF treatment. […]

[3] = patients receiving G-CSF; cited from earlier work

Question: What does the source list for “sialidase: Vibrio Cholerae neuraminidase used to cleave terminal sialic acid from sLex [reference compound]”?
Answer: ejection fraction [1]: improved ejection fraction; MPO expression (membrane MPO; BM cells treated with NA, cultured 48 h): did not induce MPO expression; endothelial cell death (TNF-α-stimulated HUVEC; TNF-α-stimulated HUVEC in absence of leukocytes (baseline)): no effect; endothelial cell death (TNF-α-stimulated HUVEC; co-culture with sialidase-treated ML compared to untreated ML): significantly decreased

Question: Which results are given for `OC[C@H]1NC[C@@H](O)[C@@H](O)[C@@H]1O` [DMJ, deoxymannojirimycin, reference compound]?
Answer: G-CSF-induced MPO expression (membrane MPO; NA-treated BM cells, G-CSF in presence of 1 mM DMJ, 48 h): significantly attenuated; induction of surface enzymatic activity (surface MPO; DMJ added to G-CSF-treated NL): prevented induction of surface enzymatic activity; G-CSF-induced angiotoxicity (TNF-α-stimulated HUVEC; NL treated with G-CSF and DMJ together): prevented G-CSF-induced angiotoxicity; G-CSF-induced expression of HECA-452-reactive glycans ([2]; NA-treated BM cells cultured 48 h with G-CSF in presence of 1 mM DMJ): markedly diminished

B1: Granulocyte colony-stimulating factor (protein, chains of the INN, looked up)
chain: MTPLGPASSLPQSFLLKCLEQVRKIQGDGAALQEKLCATYKLCHPEELVLLGHSLGIPWAPLSSCPSQALQLAGCLSQLHSGLFLYQGLLQALEGISPELGPTLDTLQLDVADFATTIWQQMEELGMAPALQPTQGAMPAFASAFQRRAGGVLVASHLQSFLEVSYRVLRHLAQP
Question: For B1, which MPO-EL expression (MPO-EL; BM and NL, 10 ng/ml G-CSF, 48 hours) is on record?
Answer: markedly induces

Question: And the MPO quantity (MPO-EL; BM and NL, 10 ng/ml G-CSF, 48 hours, anti-MPO 3D3 blot)?
Answer: without significant increase

Question: And the MPO-EL expression (MPO-EL; ML, ex vivo exposure to G-CSF)?
Answer: did not further increase

Question: What about the “cutaneous leukocytoclastic vasculitis, patients affected” value [3] of the same molecule?
Answer: ≤ 6%

Question: What about the MPO membrane expression (membrane MPO; ML treated ex vivo with G-CSF) of the same molecule?
Answer: only modestly increased

Question: What about the “expression of surface MPO” value (membrane MPO; NL and BM cells treated ex vivo with G-CSF) of the same molecule?
Answer: dramatically increased

Question: And the “cell surface MPO enzymatic (peroxidase) activity” value (surface MPO; NL cultured with 10 ng/ml G-CSF for 48 hours)?
Answer: induced surface peroxidase activity

Question: What about the angiotoxicity (TNF-α-stimulated HUVEC; G-CSF-treated ML compared to untreated ML) of the same molecule?
Answer: no significant increase in angiotoxicity

Question: And the “endothelial cell death (cytotoxic effect)” value (TNF-α-stimulated HUVEC; G-CSF-treated NL or BM compared to untreated NL or BM cells)?
Answer: enhanced cytotoxic effect; also recorded: markedly increased

Question: And the HECA452-reactive glycans ([2]; ML treated ex vivo with G-CSF)?
Answer: only modest increases

Question: What about the “expression of HECA-452 determinants” value ([2]; NA-treated BM cells incubated with G-CSF vs without G-CSF, 48 h) of the same molecule?
Answer: marked increased expression

Question: What about the HECA452-reactive glycans ([2]; NL and BM treated ex vivo with G-CSF) of the same molecule?
Answer: significant increase
